Measured values as given in patent publication US12649925B2, “Tissue-specific expression and hybrid plant production” (Dow AgroSciences LLC, priority 2013, dated 2026).
Residue numbers refer to the chain shown, from its start.

B1: pDAB112377: Transient construct: ZmUbilv2/AAD1 v3/miR529 perfect target site with miR156 site mutated/ZmPer5 3′UTR (SEQ ID NO:10) (nucleic acid)
DNA: ATGGCTCATGCTGCCCTCAGCCCTCTCTCCCAACGCTTTGAGAGAATAGCTGTCCAGCCACTCACTGGTGTCCTTGGTGCTGAGATCACTGGAGTGGACTTGAGGGAACCACTTGATGACAGCACCTGGAATGAGATATTGGATGCCTTCCACACTTACCAAGTCATCTACTTTCCTGGCCAAGCAATCACCAATGAGCAGCACATTGCATTCTCAAGAAGGTTTGGACCAGTTGATCCAGTGCCTCTTCTCAAGAGCATTGAAGGCTATCCAGAGGTTCAGATGATCCGCAGAGAAGCCAATGAGTCTGGAAGGGTGATTGGTGATGACTGGCACACAGACTCCACTTTCCTTGATGCACCTCCAGCTGCTGTTGTGATGAGGGCCATAGATGTTCCTGAGCATGGCGGAGACACTGGGTTCCTTTCAATGTACACAGCTTGGGAGACCTTGTCTCCAACCATGCAAGCCACCATCGAAGGGCTCAACGTTGTGCACTCTGCCACACGTGTGTTCGGTTCCCTCTACCAAGCACAGAACCGTCGCTTCAGCAACACCTCAGTCAAGGTGATGGATGTTGATGCTGGTGACAGAGAGACAGTCCATCCCTTGGTTGTGACTCATCCTGGCTCTGGAAGGAAAGGCCTTTATGTGAATCAAGTCTACTGTCAGAGAATTGAGGGCATGACAGATGCAGAATCAAAGCCATTGCTTCAGTTCCTCTATGAGCATGCCACCAGATTTGACTTCACTTGCCGTGTGAGGTGGAAGAAAGACCAAGTCCTTGTCTGGGACAACTTGTGCACCATGCACCGTGCTGTTCCTGACTATGCTGGCAAGTTCAGATACTTGACTCGCACCACAGTTGGTGGAGTTAGGCCTGCCCGCTGAGTAGTTAGCTTAATCACCTAGAGCTCGACTCAGGCTGTACTCTCTCTCTTCACAAAGTACTCAGGTAACCTTTAAACTGAGGGCACTGAAGTCGCTTGATGTGCTGAATTGTTTGTGATGTTGGTGGCGTATTTTGTTTAAATAAGTAAGCATGGCTGTGATTTTATCATATGATCGATCTTTGGGGTTTTATTTAACACATTGTAAAATGTGTATCTATTAATAACTCAATGTATAAGATGTGTTCATTCTTCGGTTGCCATAGATCTGCTTATTTGACCTGTGATGTTTTGACTCCAAAAACCAAAATCACAACTCAATAAACTCATGGAATATGTCCACCTGTTTCTTGAAGAGTTCATCTACCATTCCAGTTGGCATTTATCAGTGTTGCAGCGGCGCTGTGCTTTGTAACATAACAATTGTTACGGCATATATCCAA
modifications: expression cassette; (969)..(1333) ZmPer5 3′UTR
B2: pDAB112376: Transient construct: ZmUbilv2/AAD1 v3/WT miR529 target site with miR156 site mutated/ZmPer5 3′UTR (SEQ ID NO:9) (nucleic acid)
DNA: B1 DNA with C937T, T938A
modifications: pDAB112377 expression cassette; (918)..(954) modified tsh4 target site; (969)..(1333) ZmPer5 3′UTR

Experiments:
Maize Immature Embryos [1] = assay: Transient AAD1 expression in immature embryos after particle bombardment, ELISA; format: cell-based, Zea mays; conditions: 24 hours after particle bombardment; co-bombardment plasmid pDAB112378 (artificial miRNA)
Source text: Zea mays embryos from inbred line B104 that express AAD1 mRNAs having miRNA target sites within the mRNA were produced. Control tissues having no miRNA target sites in the AAD1 mRNA, or having no AAD1 gene expression cassette, were also produced. Other control tissues were produced that had only a YFP gene expression cassette (and no AAD1 construct). Preparations of plant transformation DNA molecules constructed as described in EXAMPLE 2 were delivered into maize B104 immature embryos via particle bombardment transformation.
Plasmid DNAs of pDAB112375, pDAB112376, pDAB112377, pDAB113016, pDAB100286, pDAB112378 and pDAB112330 were isolated and purified from Escherichia coli by standard techniques, and diluted in TE buffer (10 mM Tris HCl plus 1 mM EDTA, pH 8) to 1.0 μg/μL.
Embryo isolation and culture: (Day 1) Surface-sterilized B104 immature ears (10 to 12 days post-pollination) were used for the isolation of embryos. Excised immature embryos from 3 to 4 ears were pooled into 2 mL microfuge tubes containing 2.0 mL liquid medium (LS basal medium (Linsmaier and Skoog, (1965) Physiologia Plantarum 18:100-27) containing CHU N6 vitamins (Chu et al. (1975) Scientia Sinica 18:659-68), 700 mg/L L-Proline, 68.5 gm/L sucrose, 36 gm/L D(+) glucose, and 1.5 mg/L 2,4-D). After embryo isolation, the liquid medium was removed and discarded. Embryos were removed and placed onto plates (40 embryos per plate) containing a semi-solid osmotic medium (MS basal medium (Murashige and Skoog, (1962) Physiologia Plantarum 15:473-497), 2 mg/L Glycine, 500 μg/L Thiamine, 500 μg/L Pyroxidine, 50 μg/L Nicotinic Acid., 120 gm/L sucrose, 100 mg/L myo-inositol, and 2.4 gm/L GELRITE). The embryos were arranged in a […] within the target area for particle bombardment. Three replicate plates were prepared for each construct to be tested. All plates were incubated at 28° C. under continuous low light (50 μEm^−2 sec^−1) for 24 hours prior to particle bombardment.
Coating gold particles with DNA: (Day 2) Tubes of frozen gold particles glycerol stock were thawed on ice for a few minutes, then vortexed for 2 minutes at high speed until a uniform gold suspension was produced. Gold suspension was pipetted into sterile microcentrifuge tubes (50 μL each), with an intermediate vortexing of the particle stock between each tube to maintain a uniform suspension. 2.5 μg each of appropriate plasmid DNAs were included. […]
ELISA quantification of AAD1 and PAT proteins: Enzyme Linked Immunosorbant Assays (ELISAs) were used to measure the production of AAD1 and PAT proteins in maize cells and stably-transformed tissues. […]

Maize Immature Embryos [2] = assay: Selection of Agrobacterium-transformed immature embryos on herbicide-containing medium; format: cell-based, Zea mays; conditions: Selection Medium I containing 100 nM R-Haloxyfop acid
Source text: Agrobacterium-mediated transformation was used to stably integrate a chimeric gene into the plant genome, and thus generate transgenic maize cells, tissues, and plants that produce AAD1 mRNAs having miRNA target sites within the mRNA. Control tissues having no miRNA target sites in the AAD1 mRNA were also produced. Transformed tissues were selected by their ability to grow on Haloxyfop-or Bialaphos-containing medium.
Callus Selection and Regeneration of Transgenic Events: Following the co-cultivation period, embryos were transferred to Resting Medium (4.33 g/L MS salts; 1× ISU Modified MS Vitamins; 30 g/L sucrose; 700 mg/L L-proline; 3.3 mg/L Dicamba in KOH; 100 mg/L myo-inositol; 100 mg/L Casein Enzymatic Hydrolysate; 15 mg/L AgNO3; 0.5 g/L MES (2-(N-morpholino) ethanesulfonic acid monohydrate; PHYTOTECHNOLOGIES LABR.; Lenexa, K S); 250 mg/L Cefotaxime; and 7.0 gm/L agar; at pH 5.8). No more than 36 embryos were moved to each plate. The plates were wrapped with Micropore™ tape and incubated at 27° C. with continuous light at approximately 50 μmol m^−2s^−1 light intensity for 7 to 10 days. […]

Row | Molecule | Mean AAD1 Amount (Maize Immature Embryos [1]) [ng/mL] | fate of transformed embryos on Haloxyfop-containing medium (Maize Immature Embryos [2])
1 | B1 | 249 | grew on Haloxyfop-containing medium and regenerated transgenic plants
2 | B2 | 317 | grew on Haloxyfop-containing medium and regenerated transgenic plants
